Results published in publication PMC2172719 (The Journal of Cell Biology, 2003).
Values belong to the binder of their own block, whether it stands above or below them.

Key:
SEC = molecular target: the molecule itself; assay: SEC
His-Ubc13 = molecular target: T1, His-Ubc13 (yeast, UniProt P52490 1-153); assay: SEC
T1 sequence: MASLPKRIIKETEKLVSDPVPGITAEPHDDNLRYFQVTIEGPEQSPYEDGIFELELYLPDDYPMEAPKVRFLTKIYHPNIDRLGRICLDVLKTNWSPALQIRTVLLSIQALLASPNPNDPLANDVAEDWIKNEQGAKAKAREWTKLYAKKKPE

B1: His-tagged p97 ΔN (domain or fragment)
chain: not shown
stoichiometry N (SEC): 6

binding result (His-Ubc13): binds
B2: His-Mms2 (natural protein)
chain: MSKVPRNFRLLEELEKGEKGFGPESCSYGLADSDDITMTKWNGTILGPPHSNHENRIYSLSIDCGPNYPDSPPKVTFISKINLPCVNPTTGEVQTDFHTLRDWKRAYTMETLLLDLRKEMATPANKKLRQPKEGETF
